This data set concerns the target T1, HisMBP-TZAP Znf9-11 (UniProt P10074 521-600).
T1 sequence: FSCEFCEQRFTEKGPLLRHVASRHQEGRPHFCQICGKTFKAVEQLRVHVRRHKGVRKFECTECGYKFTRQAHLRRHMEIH
Briefly: EMSA. A general note: Mobility shift assays separate free from complexed probe on a gel.

B1: Telo6 (dsDNA)
DNA 1: GGTCGACTCTAGAGATCGAAGGGTTAGGGTTAGGGTTAGGGTTAGGGTTAGGGTTACGATCCCGGGTACCGAGCTCGA
DNA 2: TCGAGCTCGGTACCCGGGATCGTAACCCTAACCCTAACCCTAACCCTAACCCTAACCCTTCGATCTCTAGAGTCGACC
For B1, the binding result was “binds”.

The record behind these values is article PMC5518674.
